Test [1] deals with MT145K SOSIP.664 trimer (MT145 Q171K). Briefly: ELISA. Set-up: unit not given beside the values.
The target in the next test is MT145K gp120 monomer. Briefly: ELISA. Set-up: unit not given beside the values. In general terms: An ELISA detects its analyte on a solid surface through an enzyme-linked reagent.
Test [2] addresses CRF250 SOSIP trimer (HIV-1 (subtype AG)). The experiment in a line: method not stated.

The record followed here is patent US20210324003A1.

On to CH01, for which the EC50 in test [1] is on record as 0.187 ?; with MT145K gp120 monomer it was 10 ?.
One may read the Kd as the concentration at which binding is half-saturated. In test [2], CH01 UCA BCR (antibody) came in with a Kd of 100 nM.
As to PG9, the EC50 in the test with MT145K gp120 monomer is listed as 0.792 ?.
